Our source for the rec: Reconstitution of split TFs (fitted based on split inteins), model rate constant fitted to reporter data values is patent publication US20230348892A1.

The test has as its target intC-ZF1-NLS-HA. The test is described as follows: cell-based or functional assay.

Substance 3xFLAG-NLS-VP64-intN returned a rec: Reconstitution of split TFs (fitted based on split inteins), model rate constant fitted to reporter data of 0.34 U^-1 h^-1.
